For assay [1], the target named is human uPAR displayed on the surface of MDA-MB-231 cells (human) (UniProt Q03405). Description: cell-based or functional assay.
Assay [2] shares this target. Description: flow cytometry (FACS) on MDA-MB-231 cells.
Assay [3] concerns the target human uPAR (recombinant protein used in ELISA and BLI) (human) (UniProt Q03405). Description: ELISA, plate-coated human uPAR.

By EC50 is commonly meant the concentration that produces a half-maximal response.

human uPAR displayed on the surface of MDA-MB-231 cells (human), sequence (Q03405 23-305): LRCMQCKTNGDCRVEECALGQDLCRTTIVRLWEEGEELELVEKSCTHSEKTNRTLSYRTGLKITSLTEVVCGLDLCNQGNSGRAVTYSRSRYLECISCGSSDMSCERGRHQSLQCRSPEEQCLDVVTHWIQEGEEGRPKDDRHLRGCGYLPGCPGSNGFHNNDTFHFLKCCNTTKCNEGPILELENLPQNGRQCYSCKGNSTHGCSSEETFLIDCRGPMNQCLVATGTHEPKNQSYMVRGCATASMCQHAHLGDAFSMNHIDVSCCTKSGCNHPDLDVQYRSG
human uPAR (recombinant protein used in ELISA and BLI) (human), sequence (Q03405 23-305 limits assumed): as the sequence (Q03405 23-305) above

B1: 3C6 (antibody, from another filing, V domains shown)
VH: QVQLQQWGAGLLKPSETLSLTCAVYGGSFSGYYWSWIRQPPGKGLEWIGEINHSGSTNYNPSLKSRVTISVDTSKNQFSLKLSSVTAADTAVYYCARGRRFGDFDYWGQGTLVTVSS
VL: QPVLTQPPSVSVAPGKTARITCGGNNIGSKSVHWYQQKPGQAPVLVVYDDSDRPPGIPERFSGSNSGNTATLTISRVEAGDEADYYCQVWDSSSDHSPFGTGTKVTVLG
In assay [1], B1 gave an ADC Cytotoxicity Max % of 1.42% and an Adhesion blocking EC50 of 810 nM. In assay [2], this molecule came in with a Cellular recognition Max % of 971% and a concentration for a half-maximal effect (EC50) of 292 nM. In assay [3], the EC50 came out at 0.28 nM.

B2: 2G10 (antibody, from another filing, V domains shown)
VH: QVQLQQSGPGLVKPSQTLSLTCAISGDSVSSNSAAWNWIRQSPSRGLEWLGRTYYRSKWYNDYAVSVKSRIIINPDTSKNQFSLQLNSVTPEDTAVYYCARDPGGPLDDSFDIWGQGTMVTVSS
VL: DVVMTQSPLSLPVTPGEPASISCRSSQSLLRSNGYNYLDWYLQKPGQSPQLLIYLGSIRASGVPDRFSGSGSGTDFTLRISRVEAEDVGVYYCMQALQTPFTFGQGTKLEIKR
In assay [1], B2 returned an ADC Cytotoxicity Max % of 4.9%, an ADCC NK-92 EC50 of 22.5 nM, an ADCC NK-92 Max % of 33.9% and an ADCC PBMCs EC50 of 8.65 nM. Also, in assay [1], the ADCC PBMCs Max % was determined as 65.5% and the Adhesion blocking EC50 came out at 3500 nM. Further, in assay [2], the Cellular recognition Max % stood at 2200% and the EC50 turned out to be 16.6 nM. For the same molecule, in assay [3], the concentration for a half-maximal effect (EC50) is 0.26 nM.

(Values after patent publication US20260116983A1.)
